Experiment: yeast display, Sf9 membrane polyspecificity reagent, FACS + sequencing; frameworks hold sequencing errors
How it was run: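 Using colony PCR, genes from sorted yeast display clones were amplified, then sequenced on MiSeq at 2 × 250 and filtered by CDR length. The clones had been stained with 10% biotinylated, detergent-solubilized Sf9 membrane reagent for 1 hour at 4 °C and sorted by FACS into low and high (top ~1%) gates on anti-HA and streptavidin fluorescence. Polyreactivity labels come from the gate of origin.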

| Sequence | polyreactivity (PSR sort gate) |
| --- | --- |
| QVQLVESGGGLVQAGCSLRLSCAASGRIYRRYAMGWYRQAPGKERELVAAISSRGGRTYYADSVKGRITISRDNAMNTVYLQMNSLKQEDTAVYYCAARPAGYGHYKYYYWGQGTQVTVSS | high polyreactivity |
| QVQLVESGGGLVQAGCSLRLSCAASGRPFWYNAMGGYRQAPGNVRELVAGISGSGGSTYYADSVKGRFTISRDNAKNTVYLQMNSLKPEDTAVYYCAATTGYSRSYRYGYWGQGTQVTVSS | high polyreactivity |
| QVQLVESGGGLVQAGCSLRLSCAASGRTFLLYAMGWYRQAPGKERELVAAITWGGGSTYYADSVKGRFTISRDNAKNIVYLQMNCLKPEDTAVYYCNAYYWSRMDYWGQGTQVTVSS | low polyreactivity |
| QVQLVESGGGLVQAGCSLRLSCAASGRTFVYNAMGWYRKAPGKERELVAGITGSGDSTYYADSVKGRFTISRDNAKNTVYLQMNSMKPEDTAVYYCNQLVEEDYWGQGTQVTVSS | low polyreactivity |
| QVQLVESGGGLVQAGCSLRLSCAASGSIFAPYAMGWYRQAPGKERELVAAISYSGGSTYYADSVKGRLTISRDNAKNTVYLQMNSLKPEDTAVYYCAARVLHQDFYKRYYWGQGTQVTVSS | high polyreactivity |
| QVQLVESGGGLVQAGCSLRLSCAASGSIFDTNAKGWYRQAPGKERELVAAIYDNTGRTYYADSVKGRFTISRDNSKNTVYLQMNSQKPEDTAVYYCNAPRYYWISFARWPASYYYWGQGTQVTVSS | high polyreactivity |
| QVQLVESGGGLVQAGCSLRLSCAASGSIFSQSAMGWYRQAPGKERELVAAISARGTSTYYADSVKGRFTISRDNAKNTVYLQMNSLKPEDTAVYYCNTVRPYSSSSSRYYYWGQGTQVTVSS | high polyreactivity |
| QVQLVESGGGLVQAGCSLRLSCAASGSIFSYYDMGSYRQAPGKERELVAGISRGGSTNYADSVKGRFTISRDNAKNTVYLQMNILKPEDTAVYYCNADQSSRTYPFRLSRRSLLYGYWGLGTQVTVSS | low polyreactivity |
| QVQLVESGGGLVQAGCSLRLSCAASGSIFYGYAMGWYRQAPGKERELVARITGSGGDTSYADSVKGRFTISRDNAKNTVYLQMNSLKPEDTAVYYCNTDLYITYTLYTGSEYDYWGQGTQVTVSS | low polyreactivity |
| QVQLVESGGGLVQAGCSLRLSCAASGSIFYRNPMVWYRQAPGKERELVAAISSDGSTNYADSVKGRFTISRDNAKNTVYLQMNSLKPEDTAVYYCAAPWTQILDYWGQGTQVTVSS | low polyreactivity |
| QVQLVESGGGLVQAGCSLRLSCAASGSILWHYAKGWYRQAPGKERELVAFISSSGSTYYADSVKGRFTISRDNAKNTVYLQMNSLKPEDTAVDYCNAYRLYSGYVPYDYWGQCTQVTVSS | high polyreactivity |
| QVQLVESGGGLVQAGCSLRLSCAASGSIYPYAMGCYRQAPGKESELVAAINFNGGRTYYAHSVNGRFTISRDNAKNTVYLQMTSLKPDVTAFYYCAARISVYSTLPNDFDYWGQGTQVTVSS | high polyreactivity |
| QVQLVESGGGLVQAGCSLRLSCAASGSTFPYNTMGWYRQAPGKERELVAAITSSAGSTYYADSVKGRFTISRDNAKNTVYLQMNSLKPDDTAVYYCAADYIVWKGSNSYYYAGYYYWGQGTQVTVSS | low polyreactivity |
| QVQLVESGGGLVQAGCSLRLSCAASGSTFRWYAMGWYRPAPGKEREFVAAITSSGGSTYYADSVKGRFTISRDNAKNTVYLQMNSLKPEDTAVYYCNRRYQPYSYDYWGQGTQVTVSS | high polyreactivity |
| QVQLVESGGGLVQAGCSLRLSCAATGFIFKRNAMGWYRQAPGKERELVAAITKSGVNSYYADSVKGRFTISRDNAKNTVYLLMNSLKPEDTAVYYCAARGNRKQAWYKYNYCGQGTQVTVSS | high polyreactivity |
| QVQLVESGGGLVQAGCSLRLSCAAYGSIFSYNAMGWYRQAPGKERELVASISWSGGRTFYADSVKGRFTISRDNAKNTVYLQMNSLKPEDTAVYYCAFRHYSTYYSRFGYWGQGTKVTVSS | high polyreactivity |
| QVQLVESGGGLVQAGCSLRLSCAPSGSTFKVNDMGWYRQAPGKERELVAAIDKSGGTTYYADSVKGRFTLSRDNAKNTVYYQMNSLKPEDTAVYYCAADVIYEMDYWGQGTQVTVSS | low polyreactivity |
| QVQLVESGGGLVQAGCSLRLSCDASGRIFVTNAMGWYRQAPGKERELVAANSYRGGRTYYADSVKGRFTISRDNAKNTVYLQMNSLKPEDTAVYYCNAVTRWPFDYWGQGTQVTVSS | high polyreactivity |
| QVQLVESGGGLVQAGCSLRLSCSASGRIFGYYAKGWYRQAPGKERELVARISGRGGSTYYADSVKVRFSISRDNAQKTVILQMNSLNPEDTAVYYCNVVLSFWKYYAYDQGDYWGQGTQVTVSS | low polyreactivity |
| QVQLVESGGGLVQAGCSLRLSPASGSTLAGNTMGWYRQAPGKERELVAAINDSGGSTYYADSVKGRFTISRDNAKNSVNLQMNSLKPEDTGVYYCNADGSAYIEDGYDYWGQGTQVTVSS | low polyreactivity |
| QVQLVESGGGLVQAGCSLRLSSAASGSTFLGYAMGWYRQAPGKERELVAAITYSAGSTYYADSVKGRFTISRDNAKNTVYLQMNSLKPEDTAVYYCSKRYSGYDHWGQGTQVTVSS | low polyreactivity |
| QVQLVESGGGLVQAGCSLRLTCAASGSTFKKYAKGWYRQAPGKERDFVAAISRGGRTYYAYSVKGRFTISRDNAKNTVYLQMNSLKPEDTAVYYCAAETFGYQEVYFWGQGTQVTVSS | high polyreactivity |

Source: the nanobody polyreactivity screen of Harvey et al. (2022)
